Measurements published in publication PMC9482650, “Quantitative fragmentomics allow affinity mapping of interactomes” (Nature Communications, 2022).

Experiments:
Test in all cases: holdup assay
Design in all cases: key: below the threshold = too weak to quantify, mostly under pKd 3.1 to 4
MPDZ_5, O75970 = target: T1, MPDZ_5, O75970
T1 sequence (O75970 695-796, limits assumed, looked up): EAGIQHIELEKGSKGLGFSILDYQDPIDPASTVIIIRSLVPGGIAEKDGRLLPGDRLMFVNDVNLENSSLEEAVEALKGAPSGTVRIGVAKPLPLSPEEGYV

HTRA3, P83110 = target: T2, HTRA3, P83110
T2 sequence (P83110 354-453, limits assumed, looked up): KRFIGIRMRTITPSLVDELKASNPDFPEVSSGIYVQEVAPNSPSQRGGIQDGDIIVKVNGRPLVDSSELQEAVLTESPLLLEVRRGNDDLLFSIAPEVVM

FRMPD2_2, Q68DX3 = target: FRMPD2_2, Q68DX3
CASK, O14936 = target: CASK, O14936
RHPN1, Q8TCX5 = target: T3, RHPN1, Q8TCX5
T3 sequence (Q8TCX5 508-602, limits assumed, looked up): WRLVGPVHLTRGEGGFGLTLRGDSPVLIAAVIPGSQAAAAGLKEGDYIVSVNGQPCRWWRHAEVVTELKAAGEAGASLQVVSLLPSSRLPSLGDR

GORASP2, Q9H8Y8 = target: GORASP2, Q9H8Y8
GORASP1, Q9BQQ3 = target: GORASP1, Q9BQQ3
DLG3_1, Q92796 = target: T4, DLG3_1, Q92796
T4 sequence (Q92796 125-227, limits assumed, looked up): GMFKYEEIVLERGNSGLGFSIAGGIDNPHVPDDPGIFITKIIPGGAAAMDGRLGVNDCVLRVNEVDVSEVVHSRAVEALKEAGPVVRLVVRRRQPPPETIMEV

MAGI1_1, Q96QZ7 = target: MAGI1_1, Q96QZ7
GRID2IP_1, A4D2P6 = target: GRID2IP_1, A4D2P6
SNTB1, Q13884 = target: T5, SNTB1, Q13884
T5 sequence (Q13884 107-205, limits assumed, looked up): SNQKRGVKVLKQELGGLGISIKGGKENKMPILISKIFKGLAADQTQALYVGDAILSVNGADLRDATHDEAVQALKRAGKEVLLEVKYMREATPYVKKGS

LAP2, Q96RT1 = target: LAP2, Q96RT1
SCRIB_2, Q14160 = target: SCRIB_2, Q14160
GRIP1_7, Q9Y3R0 = target: T6, GRIP1_7, Q9Y3R0
T6 sequence (Q9Y3R0 999-1096, limits assumed, looked up): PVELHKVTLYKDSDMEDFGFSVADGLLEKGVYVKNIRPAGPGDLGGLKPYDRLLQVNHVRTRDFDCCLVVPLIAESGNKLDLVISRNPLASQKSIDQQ

NHERF3_3, Q5T2W1 = target: T7, NHERF3_3, Q5T2W1
T7 sequence (Q5T2W1 238-333, limits assumed, looked up): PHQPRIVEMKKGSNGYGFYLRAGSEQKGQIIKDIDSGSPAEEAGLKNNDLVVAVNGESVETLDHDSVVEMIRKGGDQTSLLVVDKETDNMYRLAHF

PDZD2_2, O15018 = target: T8, PDZD2_2, O15018
T8 sequence (O15018 329-429, limits assumed, looked up): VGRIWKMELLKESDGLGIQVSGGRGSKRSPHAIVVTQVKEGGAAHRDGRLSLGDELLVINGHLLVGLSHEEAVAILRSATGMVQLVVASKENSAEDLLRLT

FRMPD2_3, Q68DX3 = target: FRMPD2_3, Q68DX3
Inadl_5, Q8NI35 = target: Inadl_5, Q8NI35
Inadl_8, Q8NI35 = target: Inadl_8, Q8NI35
MAGI3_2, Q5TCQ9 = target: MAGI3_2, Q5TCQ9
LIN7A, O14910 = target: T9, LIN7A, O14910
T9 sequence (O14910 103-200, limits assumed, looked up): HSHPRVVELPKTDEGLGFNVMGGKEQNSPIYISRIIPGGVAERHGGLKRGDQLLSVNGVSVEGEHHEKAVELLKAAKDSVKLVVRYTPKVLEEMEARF

DLG3_2, Q92796 = target: T10, DLG3_2, Q92796
T10 sequence (Q92796 221-321, limits assumed, looked up): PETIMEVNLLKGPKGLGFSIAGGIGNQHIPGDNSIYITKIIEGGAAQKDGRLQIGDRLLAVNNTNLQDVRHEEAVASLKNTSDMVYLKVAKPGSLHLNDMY

MAGI2_6, Q86UL8 = target: MAGI2_6, Q86UL8
NHERF3_4, Q5T2W1 = target: T11, NHERF3_4, Q5T2W1
T11 sequence (Q5T2W1 373-468, limits assumed, looked up): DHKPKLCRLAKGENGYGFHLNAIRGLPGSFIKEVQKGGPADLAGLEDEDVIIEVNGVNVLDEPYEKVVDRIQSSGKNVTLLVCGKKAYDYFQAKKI

TJP1_2, Q07157 = target: TJP1_2, Q07157
DLG4_1, P78352 = target: DLG4_1, P78352
FRMPD2_1, Q68DX3 = target: FRMPD2_1, Q68DX3
[1] = plain residues with an end cap or a label only (N-terminal biotin on a linker: ado-ado)
[2] = plain residues with an end cap or a label only (N-terminal biotin on a linker: ahx)

Sequence of MAGI2_6, Q86UL8 (Q86UL8 1141-1229): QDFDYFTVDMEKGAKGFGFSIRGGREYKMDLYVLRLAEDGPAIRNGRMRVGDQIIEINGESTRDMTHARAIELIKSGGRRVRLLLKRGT
Sequence of MAGI1_1, Q96QZ7 (Q96QZ7 1-106): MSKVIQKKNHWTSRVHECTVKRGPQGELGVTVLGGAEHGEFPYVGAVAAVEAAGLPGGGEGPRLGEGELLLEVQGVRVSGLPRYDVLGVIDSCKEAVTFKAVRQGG
Sequence of TJP1_2, Q07157 (Q07157 181-274): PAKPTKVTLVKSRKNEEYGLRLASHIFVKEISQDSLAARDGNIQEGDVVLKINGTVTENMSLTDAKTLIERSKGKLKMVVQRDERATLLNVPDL
Sequence of FRMPD2_1, Q68DX3 (Q68DX3 770-861): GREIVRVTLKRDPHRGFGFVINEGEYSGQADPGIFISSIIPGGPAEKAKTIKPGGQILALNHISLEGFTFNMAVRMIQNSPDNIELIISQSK
Sequence of LAP2, Q96RT1 (Q96RT1 other isoform, or with tags, fused parts or gaps): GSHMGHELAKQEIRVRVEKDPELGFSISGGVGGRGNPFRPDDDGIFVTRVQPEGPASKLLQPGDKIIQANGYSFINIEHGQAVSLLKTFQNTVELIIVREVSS
Sequence of MAGI3_2, Q5TCQ9 (Q5TCQ9 398-503): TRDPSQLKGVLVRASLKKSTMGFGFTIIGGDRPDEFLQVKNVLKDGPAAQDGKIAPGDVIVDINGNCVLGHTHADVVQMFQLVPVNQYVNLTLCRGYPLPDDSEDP
Sequence of SCRIB_2, Q14160 (Q14160 857-960): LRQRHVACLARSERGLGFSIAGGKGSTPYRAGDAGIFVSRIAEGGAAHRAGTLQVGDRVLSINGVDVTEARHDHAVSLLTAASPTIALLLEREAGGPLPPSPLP
Sequence of GRID2IP_1, A4D2P6 (A4D2P6 1-87): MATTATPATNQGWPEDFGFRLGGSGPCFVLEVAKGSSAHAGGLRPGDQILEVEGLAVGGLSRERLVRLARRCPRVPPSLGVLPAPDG
Sequence of FRMPD2_3, Q68DX3 (Q68DX3 1073-1166): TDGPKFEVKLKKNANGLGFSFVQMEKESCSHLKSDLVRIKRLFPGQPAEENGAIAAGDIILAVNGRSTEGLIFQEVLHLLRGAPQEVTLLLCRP
Sequence of GORASP1, Q9BQQ3 (Q9BQQ3 1-208): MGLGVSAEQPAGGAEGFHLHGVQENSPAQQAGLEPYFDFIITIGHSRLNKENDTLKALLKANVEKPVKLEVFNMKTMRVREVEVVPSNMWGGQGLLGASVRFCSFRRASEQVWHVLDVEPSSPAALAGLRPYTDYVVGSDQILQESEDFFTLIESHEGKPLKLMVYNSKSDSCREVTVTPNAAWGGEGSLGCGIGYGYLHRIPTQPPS
Sequence of FRMPD2_2, Q68DX3 (Q68DX3 944-1038): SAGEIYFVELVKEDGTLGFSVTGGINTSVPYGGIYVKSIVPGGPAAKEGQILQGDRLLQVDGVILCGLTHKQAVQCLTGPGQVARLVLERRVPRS
Sequence of CASK, O14936 (O14936 487-570): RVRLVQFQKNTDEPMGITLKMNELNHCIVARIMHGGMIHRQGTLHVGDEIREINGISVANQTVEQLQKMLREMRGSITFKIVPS
Sequence of Inadl_5, Q8NI35 (Q8NI35 673-780): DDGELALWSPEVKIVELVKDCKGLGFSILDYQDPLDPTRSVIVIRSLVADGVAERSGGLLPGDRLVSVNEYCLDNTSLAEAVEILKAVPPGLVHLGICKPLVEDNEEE
Sequence of Inadl_8, Q8NI35 (Q8NI35 1425-1530): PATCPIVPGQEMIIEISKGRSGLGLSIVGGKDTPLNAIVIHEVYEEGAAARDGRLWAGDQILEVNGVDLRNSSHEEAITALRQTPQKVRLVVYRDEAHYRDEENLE
Sequence of DLG4_1, P78352 (P78352 62-152): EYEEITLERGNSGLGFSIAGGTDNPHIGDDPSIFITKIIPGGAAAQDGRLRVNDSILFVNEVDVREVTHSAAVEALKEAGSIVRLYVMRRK

QRPYRRGSEI [KCNJ18, B7U540]
pKd (MPDZ_5, O75970; [1]): below the threshold | pKd (HTRA3, P83110; [1]): 3.58 | pKd (FRMPD2_2, Q68DX3; [1]): 3.73 | pKd (CASK, O14936; [1]): below the threshold | pKd (RHPN1, Q8TCX5; [1]): 3.75 | pKd (GORASP2, Q9H8Y8; [1]): below the threshold | pKd (GORASP1, Q9BQQ3; [1]): below the threshold | pKd (DLG3_1, Q92796; [1]): below the threshold | pKd (MAGI1_1, Q96QZ7; [1]): below the threshold | pKd (GRID2IP_1, A4D2P6; [1]): below the threshold | pKd (SNTB1, Q13884; [1]): below the threshold | pKd (LAP2, Q96RT1; [1]): 4.09 | pKd (SCRIB_2, Q14160; [1]): 3.49 | pKd (GRIP1_7, Q9Y3R0; [1]): below the threshold | pKd (NHERF3_3, Q5T2W1; [1]): below the threshold | pKd (PDZD2_2, O15018; [1]): 4.79 | pKd (FRMPD2_3, Q68DX3; [1]): below the threshold | pKd (Inadl_5, Q8NI35; [1]): below the threshold | pKd (Inadl_8, Q8NI35; [1]): 3.69 | pKd (MAGI3_2, Q5TCQ9; [1]): 3.99 | pKd (LIN7A, O14910; [1]): below the threshold | pKd (DLG3_2, Q92796; [1]): 4.14 | pKd (MAGI2_6, Q86UL8; [1]): below the threshold | pKd (NHERF3_4, Q5T2W1; [1]): below the threshold | pKd (TJP1_2, Q07157; [1]): below the threshold | pKd (DLG4_1, P78352; [1]): below the threshold | pKd (FRMPD2_1, Q68DX3; [1]): below the threshold

ARSAAASNYV [CLDN4, O14493]
pKd (MPDZ_5, O75970; [1]): below the threshold | pKd (HTRA3, P83110; [1]): 4.15 | pKd (FRMPD2_2, Q68DX3; [1]): below the threshold | pKd (CASK, O14936; [1]): below the threshold | pKd (RHPN1, Q8TCX5; [1]): below the threshold | pKd (GORASP2, Q9H8Y8; [1]): 4.01 | pKd (GORASP1, Q9BQQ3; [1]): 3.69 | pKd (DLG3_1, Q92796; [1]): below the threshold | pKd (MAGI1_1, Q96QZ7; [1]): below the threshold | pKd (GRID2IP_1, A4D2P6; [1]): below the threshold | pKd (SNTB1, Q13884; [1]): below the threshold | pKd (LAP2, Q96RT1; [1]): below the threshold | pKd (SCRIB_2, Q14160; [1]): below the threshold | pKd (GRIP1_7, Q9Y3R0; [1]): below the threshold | pKd (NHERF3_3, Q5T2W1; [1]): below the threshold | pKd (PDZD2_2, O15018; [1]): 4.49 | pKd (FRMPD2_3, Q68DX3; [1]): below the threshold | pKd (Inadl_5, Q8NI35; [1]): 3.68 | pKd (Inadl_8, Q8NI35; [1]): 4.06 | pKd (MAGI3_2, Q5TCQ9; [1]): below the threshold | pKd (LIN7A, O14910; [1]): below the threshold | pKd (DLG3_2, Q92796; [1]): below the threshold | pKd (MAGI2_6, Q86UL8; [1]): below the threshold | pKd (NHERF3_4, Q5T2W1; [1]): below the threshold | pKd (TJP1_2, Q07157; [1]): below the threshold | pKd (DLG4_1, P78352; [1]): 3.54 | pKd (FRMPD2_1, Q68DX3; [1]): below the threshold

QDEKVKESYV [ABCA1, O95477]
pKd (MPDZ_5, O75970; [2]): 3.63 | pKd (HTRA3, P83110; [2]): 3.55 | pKd (FRMPD2_2, Q68DX3; [2]): 5.31 | pKd (CASK, O14936; [2]): below the threshold | pKd (RHPN1, Q8TCX5; [2]): 4.9 | pKd (GORASP2, Q9H8Y8; [2]): 3.75 | pKd (GORASP1, Q9BQQ3; [2]): 3.66 | pKd (DLG3_1, Q92796; [2]): 4.29 | pKd (MAGI1_1, Q96QZ7; [2]): below the threshold | pKd (GRID2IP_1, A4D2P6; [2]): below the threshold | pKd (SNTB1, Q13884; [2]): 5.22 | pKd (LAP2, Q96RT1; [2]): 4.41 | pKd (SCRIB_2, Q14160; [2]): 4.61 | pKd (GRIP1_7, Q9Y3R0; [2]): 3.49 | pKd (NHERF3_3, Q5T2W1; [2]): 3.51 | pKd (PDZD2_2, O15018; [2]): 5.66 | pKd (FRMPD2_3, Q68DX3; [2]): 3.9 | pKd (Inadl_5, Q8NI35; [2]): 3.73 | pKd (Inadl_8, Q8NI35; [2]): 4.68 | pKd (MAGI3_2, Q5TCQ9; [2]): 5.14 | pKd (LIN7A, O14910; [2]): 3.89 | pKd (DLG3_2, Q92796; [2]): 4.92 | pKd (MAGI2_6, Q86UL8; [2]): 4.53 | pKd (NHERF3_4, Q5T2W1; [2]): 3.5 | pKd (TJP1_2, Q07157; [2]): below the threshold | pKd (DLG4_1, P78352; [2]): 4.52 | pKd (FRMPD2_1, Q68DX3; [2]): 3.53

NISYRRESAI [KCNJ4, P48050]
pKd (MPDZ_5, O75970; [1]): below the threshold | pKd (HTRA3, P83110; [1]): below the threshold | pKd (FRMPD2_2, Q68DX3; [1]): below the threshold | pKd (CASK, O14936; [1]): below the threshold | pKd (RHPN1, Q8TCX5; [1]): below the threshold | pKd (GORASP2, Q9H8Y8; [1]): below the threshold | pKd (GORASP1, Q9BQQ3; [1]): below the threshold | pKd (DLG3_1, Q92796; [1]): below the threshold | pKd (MAGI1_1, Q96QZ7; [1]): below the threshold | pKd (GRID2IP_1, A4D2P6; [1]): below the threshold | pKd (SNTB1, Q13884; [1]): 4.03 | pKd (LAP2, Q96RT1; [1]): below the threshold | pKd (SCRIB_2, Q14160; [1]): 3.69 | pKd (GRIP1_7, Q9Y3R0; [1]): below the threshold | pKd (NHERF3_3, Q5T2W1; [1]): below the threshold | pKd (PDZD2_2, O15018; [1]): 4.36 | pKd (FRMPD2_3, Q68DX3; [1]): below the threshold | pKd (Inadl_5, Q8NI35; [1]): below the threshold | pKd (Inadl_8, Q8NI35; [1]): below the threshold | pKd (MAGI3_2, Q5TCQ9; [1]): 4.9 | pKd (LIN7A, O14910; [1]): below the threshold | pKd (DLG3_2, Q92796; [1]): 4.35 | pKd (MAGI2_6, Q86UL8; [1]): below the threshold | pKd (NHERF3_4, Q5T2W1; [1]): below the threshold | pKd (TJP1_2, Q07157; [1]): below the threshold | pKd (DLG4_1, P78352; [1]): below the threshold | pKd (FRMPD2_1, Q68DX3; [1]): below the threshold
